Source: patent US20260242839A1, “GLYCOSIDE PRODUCT BIOSYNTHESIS AND RECOVERY” (Manus Bio Inc., priority 2023, published 2026)
Changes are numbered by the printed parent chain. Names and notes keep the numbering of the source.

B1: SEQ ID NO: 29: OsUGT1-2 (Oryza sativa) (protein, listed as Oryza sativa)
chain: MDSGYSSSYAAAAGMHVVICPWLAFGHLLPCLDLAQRLASRGHRVSFVSTPRNISRLPPVRPALAPLVAFVALPLPRVEGLPDGAESTNDVPHDRPDMVELHRRAFDGLAAPFSEFLGTACADWVIVDVFHHWAAAAALEHKVPCAMMLLGSAHMIASIADRRLERAETESPAAAGQGRPAAAPTFEVARMKLIRTKGSSGMSLAERFSLTLSRSSLVVGRSCVEFEPETVPLLSTLRGKPITFLGLMPPLHEGRREDGEDATVRWLDAQPAKSVVYVALGSEVPLGVEKVHELALGLELAGTRFLWALRKPTGVSDADLLPAGFEERTRGRGVVATRWVPQMSILAHAAVGAFLTHCGWNSTIEGLMFGHPLIMLPIFGDQGPNARLIEAKNAGLQVARNDGDGSFDREGVAAAIRAVAVEEESSKVFQAKAKKLQEIVADMACHERYIDGFIQQLRSYKD
B2: SEQ ID NO: 77: SgUGT94-289-3.2 (Siraitia grosvenorii) (protein)
chain: MADAAQQGDTTTILMLPWLGYGHLSAFLELAKSLSRRNFHIYFCSTSVNLDAIKPKLPSSFSDSIQFVELHLPSSPEFPPHLHTTNGLPPTLMPALHQAFSMAAQHFESILQTLAPHLLIYDSLQPWAPRVASSLKIPAINFNTTGVFVISQGLHPIHYPHSKFPFSEFVLHNHWKAMYSTADGASTERTRKRGEAFLYCLHASCSVILINSFRELEGKYMDYLSVLLNKKVVPVGPLVYEPNQDGEDEGYSSIKNWLDKKEPSSTVFVSFGSEYFPSKEEMEEIAHGLEASEVNFIWVVRFPQGDNTSGIEDALPKGFLERAGERGMVVKGWAPQAKILKHWSTGGFVSHCGWNSVMESMMFGVPIIGVPMHVDQPFNAGLVEEAGVGVEAKRDPDGKIQRDEVAKLIKEVVVEKTREDVRKKAREMSEILRSKGEEKFDEMVAEISLLLKI
B3: SEQ ID NO: 79: PgUGT94_B1 (Panax ginseng) (protein)
chain: MADNQNGRISIALLPFLAHGHISPFFELAKQLAKRNCNVFLCSTPINLSSIKDKDSSASIKLVELHLPSSPDLPPHYHTTNGLPSHLMLPLRNAFETAGPTFSEILKTLNPDLLIYDFNPSWAPEIASSHNIPAVYFLTTAAASSSIGLHAFKNPGEKYPFPDFYDNSNITPEPPSADNMKLLHDFIACFERSCDIILIKSFRELEGKYIDLLSTLSDKTLVPVGPLVQDPMGHNEDPKTEQIINWLDKRAESTVVFVCFGSEYFLSNEELEEVAIGLEISTVNFIWAVRLIEGEKKGILPEGFVQRVGDRGLVVEGWAPQARILGHSSTGGFVSHCGWSSIAESMKFGVPVIAMARHLDQPLNGKLAAEVGVGMEVVRDENGKYKREGIAEVIRKVVVEKSGEVIRRKARELSEKMKEKGEQEIDRALEELVQICKKKKDEQ
modifications: Panax ginseng
B4: SEQ ID NO: 78: OsJUGT_1,6 (Oryza sativa) (protein, listed as Oryza sativa)
chain: MAQAERERLRVLMFPWLAHGHINPYLELATRLTTTSSSQIDVVVHLVSTPVNLAAVAHRRTDRISLVELHLPELPGLPPALHTTKHLPPRLMPALKRACDLAAPAFGALLDELSPDVVLYDFIQPWAPLEAAARGVPAVHFSTCSAAATAFFLHFLDGGGGGGGRGAFPFEAISLGGAEEDARYTMLTCRDDGTALLPKGERLPLSFARSSEFVAVKTCVEIESKYMDYLSKLVGKEIIPCGPLLVDSGDVSAGSEADGVMRWLDGQEPGSVVLVSFGSEYFMTEKQLAEMARGLELSGAAFVWVVRFPQQSPDGDEDDHGAAAARAMPPGFAPARGLVVEGWAPQRRVLSHRSCGAFLTHCGWSSVMESMSAGVPMVALPLHIDQPVGANLAAELGVAARVRQERFGEFEAEEVARAVRAVMRGGEALRRRATELREVVARRDAECDEQIGALLHRMARLCGKGTGRAAQLGH
B5: A130D: mutation to UGT enzyme of SEQ ID NO: 14 (protein)
chain: MATKNSSGMSLAERFWLTLSRSSLVVGRSCVEFEPETVPLLSTLRGKPITFLGLMPPLHEGRREDGEDATVRWLDAQPAKSVVYVALGSEVPLGVEKVHELALGLELAGTRFLWALRKPTGVSDADLLPDGFEERTRGRGVVATRWVPQMSILAHAAVGAFLTHCGWNSTIEGLMFGHPLIMLPITGDQGPNARLIEAKNAGLQVARNDGDGSFDREGVAAAIRAVAVEEESSKVFQAKAKKLQEIVADMACHERYIDGFIQQLRSYKDDSGYSSSYAAAAGMHVVICPWLAFGHLLPCLDLAQRLASRGHRVSFVSTPRNISRLPPVRPALAPLVAFVALPLPRVEGLPDGAESTNDVPHDRPDMVELHRRAFDGLAAPFSEFLGTACADWVIVDSFHHWAAAAALEHKVPCAMMLLGSAEMIASIADERLEHAETESPAAAGQGRPAAAPTFEVARMKLIR
B6: P56A: mutation to UGT enzyme of SEQ ID NO: 14 (protein)
chain: B5 chain with P56A, D130A
B7: H400Y: mutation to UGT enzyme of SEQ ID NO: 14 (protein)
chain: B5 chain with D130A, H400Y
B8: S266R: mutation to UGT enzyme of SEQ ID NO: 14 (protein)
chain: B5 chain with D130A, S266R
B9: S42E: mutation to UGT enzyme of SEQ ID NO: 14 (protein)
chain: B5 chain with S42E, D130A
B10: SEQ ID NO: 39: SgUGT94-289-1 (Siraitia grosvenorii) (protein)
chain: MDAQRGHTTTILMFPWLGYGHLSAFLELAKSLSRRNFHIYFCSTSVNLDAIKPKLPSSSSSDSIQLVELCLPSSPDQLPPHLHTTNALPPHLMPTLHQAFSMAAQHFAAILHTLAPHLLIYDSFQPWAPQLASSLNIPAINFNTTGASVLTRMLHATHYPSSKFPISEFVLHDYWKAMYSAAGGAVTKKDHKIGETLANCLHASCSVILINSFRELEEKYMDYLSVLLNKKVVPVGPLVYEPNQDGEDEGYSSIKNWLDKKEPSSTVFVSFGSEYFPSKEEMEEIAHGLEASEVHFIWVVRFPQGDNTSAIEDALPKGFLERVGERGMVVKGWAPQAKILKHWSTGGFVSHCGWNSVMESMMFGVPIIGVPMHLDQPFNAGLAEEAGVGVEAKRDPDGKIQRDEVAKLIKEVVVEKTREDVRKKAREMSEILRSKGEEKMDEMVAAISLFLKI
B11: SEQ ID NO: 60: UGT_1,6 (Coffea Arabica) (protein, listed as Coffea arabica)
chain: MENHATFNVLMLPWLAHGHVSPYLELAKKLTARNFNVYLCSSPATLSSVRSKLTEKFSQSIHLVELHLPKLPELPAEYHTTNGLPPHLMPTLKDAFDMAKPNFCNVLKSLKPDLLIYDLLQPWAPEAASAFNIPAVVFISSSATMTSFGLHFFKNPGTKYPYGNAIFYRDYESVFVENLTRRDRDTYRVINCMERSSKIILIKGFNEIEGKYFDYFSCLTGKKVVPVGPLVQDPVLDDEDCRIMQWLNKKEKGSTVFVSFGSEYFLSKKDMEEIAHGLEVSNVDFIWVVRFPKGENIVIEETLPKGFFERVGERGLVVNGWAPQAKILTHPNVGGFVSHCGWNSVMESMKFGLPIIAMPMHLDQPINARLIEEVGAGVEVLRDSKGKLHRERMAETINKVMKEASGESVRKKARELQEKLELKGDEEIDDVVKELVQLCATKNKRNGLHYY
B12: SEQ ID NO: 75: CeUGT_1,6 (Coffea eugenioides) (protein, listed as Coffea sp.)
chain: MAENHATFNVLMLPWLAHGHVSPYLELAKKLTARNFNVYLCSSPATLSSVRSKLTEKFSQSIHLVELHLPKLPELPAEYHTTNGLPPHLMPTLKDAFDMAEPNFCNVLKSLKPDLLIYDLLQPWAPEAASAFNIPAVVFISSSATMTSFGLHFFKNPGTKYPYGNTIFYRDYESVFVENLKRRDRDTYRVVNCMERSSKIILIKGFKEIEGKYFDYFSCLTGKKVVPVGPLVQDPVLDDEDCRIMQWLNKKEKGSTVFVSFGSEYFLSKEDMEEIAHGLELSNVDFIWVVRFPKGENIVIEETLPKGFFERVGERGLVVNGWAPQAKILTHPNVGGFVSHCGWNSVMESMKFGLPIIAMPMHLDQPINARLIEEVGAGVEVLRDSKGKLHRERMAETINKVTKEASGESVRKKARELQEKLELKGDEEIDDVVKELVQLCATKNKRNGLHYN
B13: SEQ ID NO: 76: CeUGT_1,6.2 (Coffea eugenioides) (protein, listed as Coffea sp.)
chain: MAENHATFNVLMLPWLAHGHVSPYLELAKKLTARNFNVYLCSSPATLSSVRSKLTEKFSQSIHLVELHLPKLPELPAEYHTTNGLPPHLMPTLKDAFDMAKPNFCNVLKSLKPDLLIYDLLQPWAPEAASAFNIPAVVFISSSATMTSFGLHFFKNPGTKYPYGNAIFYRDYESVFVENLTRRDRDTYRVINCMERSSKIILIKGFNEIEGKYFDYFSCLTGKKVVPVGPLVQDPVLDDEDCEIMQWLNKKEKVSTVFVSFGSEYFLSKKDMEEIAHGLELSNVDFIWVVRFPKGENIVIEETLPKGFFERVGERGLVVNGWAPQAKILTHPNVGGFVSHCGWNSVMESMKFGLPIIAMPMHLDQPINARLIEEVGAGVEVLRDSKGKLHRERMAETINKVMKEASGESVRKKARELQEKMDLKGDEEIDDVVKELVQLCATKNKRNGLHYY

Tests used:
Mog. IIE or Mog. IE = assay: branched glycosylation reactions by cells expressing UGT enzymes; assay type: cell-based, E. coli; conditions: Mog. IIE or Mog. IE fed; 37° C., 48 hr; LC-MS/MS
Protocol: Mog. IIE or Mog. IE was fed to cells expressing various UGT enzymes. Reactions were incubated at 37° C. for 48 hr. Products were quantified by LC-MS/MS with authentic standards of each compound. “Indirect” evidence means that consumption of substrate was observed.

steviol glycoside = steviol glycoside bioconversion by E. coli expressing individual mutations of UGT SEQ ID NO: 14; assay type: cell-based; conditions: fold improvement of % conversion vs parent UGT SEQ ID NO: 14; stevia leaf extract and glucose fed; 37° C., 48 hr
Outline: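 E. coli strains expressing single mutants of the parent UGT were fed stevia leaf extract and glucose and incubated at 37 °C for 48 hr. Steviol glycoside conversion was quantified by reverse-phase LC-DAD. Fold improvement is relative to % conversion by the parent enzyme.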

Molecule | C3 1-2 (Mog. IIE or Mog. IE) | C3 1-6 (Mog. IIE or Mog. IE) | C24 1-2 (Mog. IIE or Mog. IE) | C24 1-6 (Mog. IIE or Mog. IE) | FI %Stevioside→rebE (steviol glycoside) | FI %rebA→rebD (steviol glycoside)
B1 | No | No | No | Yes |  | 
B2 | No | Yes | No | Yes |  | 
B3 | No | No | No | Yes |  | 
B4 | No | No | Yes | No |  | 
B5 |  |  |  |  | 1.4 | 1.3
B6 |  |  |  |  | 1.5 | 1.3
B7 |  |  |  |  | 1.2 | 1.3
B8 |  |  |  |  | 1.4 | 1.3
B9 |  |  |  |  | 1.8 | 1.3
B10 | No | Yes | Yes | Yes |  | 
B11 | No | Yes | Yes | Yes |  | 
B12 | Yes | Yes | Yes | Yes |  | 
B13 | No | Yes | No | Yes |  | 
